Positions count from the first letter of the chain named.
B1: anti-CD70 human monoclonal antibody 69A7 (antibody, V domains shown)
VH: QVQLQESGPGLVKPSETLSLTCTVSGGSVSSDYYYWSWIRQPPGKGLEWLGYIYYSGSTNYNPSLKSRVTISVDTSKNQFSLKLRSVTTADTAVYYCARGDGDYGGNCFDYWGQGTLVTVSS
VL: EIVLTQSPATLSLSPGERATLSCRASQSVSSYLAWYQQKPGQAPRLLIFDASNRATGIPARFSGSGSGTDFTLTISSLEPEDFAVYYCQQRSNWPLTFGGGTKVEIK
notes: Human IgG from hybridoma; also called HuMAb 69A7; FITC-conjugated 69A7
B2: 2H5 NF: 2H5 HuMAb lacking fucosyl residues, expressed in CHO cell line Ms704-PF (antibody, V domains shown)
VH: QVQLVESGGGVVQPGRSLRLSCAASGFTFSSYIMHWVRQAPGKGLEWVAVISYDGRNKYYADSVKGRFTISRDNSKNTLYLQMNSLRAEDTAVYYCARDTDGYDFDYWGQGTLVTVSS
VL: B1 VL with F49Y, S92T

Key:
[1] = test system: 786-O human renal cancer cell line; assay: Internalization by immunofluorescence staining; type: cell-based
Description: The 786-O human renal cancer cell line was used to test the internalization of HuMab anti-CD70 antibodies 69A7 and 2H5 upon binding to the cells using immuno-fluorescence staining. 786-O cells (1×10^4 cells per 100 μl per well in a 96-well plate) were harvested from a tissue culture flask by treatment with 0.25% Trypsin/EDTA, then incubated with each of the HuMab anti-CD70 antibodies at 5 μg/ml in FACS buffer (PBS+5% FBS, media) for 30 minutes on ice. A human IgG1 isotype control was used as a negative control. Following 2 washes with media, the cells were re-suspended in the media (100 μl per well) and then incubated with goat anti-human secondary antibody conjugated with PE (Jackson ImmunoResearch Lab) at 1:100 dilution on ice for 30 minutes. The cells were either immediately imaged for morphology and immunofluorescence intensity under a fluorescent microscope (Nikon) at 0 min or incubated at 37° C. for various times. […] Similar results were also obtained with FITC-direct conjugated HuMab anti-CD70 antibodies in the assays. […] At the 120 min timepoint, membrane fluorescence was not apparent, but instead appeared to be present in intracellular compartments.

[2] = test system: monkey rhesus CD70+ B lymphoma cell line LCL8664; assay: FACS cross-reactivity with rhesus B lymphoma cells; type: binding; settings: antibody 1 μg/ml
Description: FACS analysis was also employed to access the ability of the anti-CD70 antibody 69A7 cross reacting with the monkey rhesus CD70+B lymphoma cell line, LCL8664 (ATCC#: CRL-1805). Binding of the HuMAb 69A7 anti-CD70 human monoclonal antibody was assessed by incubating 1×10^5 cells with 69A7 at a concentration of 1 μg/ml. The cells were washed and binding was detected with a FITC-labeled anti-human IgG Ab. An isotype control antibody was used as a negative control. Flow cytometric analyses were performed using a FACSCalibur flow cytometry (Becton Dickinson, San Jose, Calif.).

[3] = test system: peptide specific CD8+ T cells; assay: CMV peptide specific CD8+ T cell expansion in PBMC; type: cell-based, human
Description: Human MHC class I haplotype B*3501+ peripheral blood mononuclear cells (PBMC) pre-screened for cytomegalovirus (CMV) specific T cell responses (Astarte, Inc) were cultured in the presence of 25 ng/ml of B*3501 binding CMV peptide […] (SEQ ID NO:90) (ProImmune, Oxford, UK) and serial dilutions of the HuMAb 2H5 for 11 days. Cultures were analyzed by flow cytometry for CD8+ T cells by PE conjugated anti-CD8 staining (clone RPA-T8, BD Biosciences), for peptide specific CD8+ T cells by APC labeled peptide-MHC Class I pentameric oligomer staining (F114-4B; ProImmunc) and for viability by lack of propidium iodide staining. An isotype control antibody was used as a negative control. […] CD8+ T cell expansion (FIG. 37A). […] Data is representative of one additional experiment performed with the same donor.
Human MHC class I haplotype B*3501+PBMC pre-screened for cytomegalovirus (CMV) specific T cell responses (Astarte, Inc) were cultured in presence of 25 ng/ml of B*3501 binding CMV peptide […] (ProImmune) (SEQ ID NO:90) and 20 μgs/ml of the HuMAb 2H5 in the presence or absence of serial dilutions of an anti-human CD16 (FcRγIII) functional blocking Ab (clone 3G8; BD Biosciences) for 11 days and were then analyzed by flow cytometry for peptide specific CD8+ cell numbers as described above. […] Approximately 1000-fold more 3G8 was required to reverse 2H5 NF mediated inhibition compared to 2H5.

Molecule	membrane fluorescence intensity ([1]; 30 min incubation at 37° C.)	membrane fluorescence ([1]; 120 min timepoint)	internalization upon binding ([1]; antibody 5 μg/ml, 37° C.)	cross-reactivity with monkey CD70+ B lymphoma cells [2]	peptide specific CD8+ T cell expansion ([3]; 25 ng/ml CMV peptide, 11 days)	total CD8+ cell numbers ([3]; 25 ng/ml CMV peptide, 11 days)	3G8 required to reverse inhibition compared to 2H5 ([3]; antibody 20 μgs/ml)	effect of anti-CD16 Ab 3G8 on inhibition of peptide specific CD8+ T cell expansion ([3]; antibody 20 μgs/ml, serial dilutions of 3G8)
B1	significantly decreased	not apparent	specifically internalized	cross-reacts				
B2					completely inhibited	no significant reduction	Approximately 1000 fold	Dose dependent reversal

From patent US20100150950A1, “HUMAN ANTIBODIES THAT BIND CD70 AND USES THEREOF” (Medarex, Inc., priority 2006, published 2010)
